One substance from PMC7695563 can be followed below.

For this experiment, the target named is MG1113, IgG4 monoclonal anti-tissue factor pathway inhibitor (TFPI) antibody. Put plainly: SPR.

“TFPI-α (tissue factor pathway inhibitor alpha) (from UniProt P10646-1 29-304) (natural protein)” displayed an equilibrium dissociation constant (Kd) of 46.7 pM, an off-rate constant (koff) of 0.000131 s⁻¹ and an on-rate (kon) of 2.82e+06 M⁻¹ s⁻¹.
